Two molecules from US20130287795A1 (FUNDACION CENTRO NACIONAL DE INVESTIGACIONES ONCOLOGICAS, published 2013) can be followed below.

The target of assay [1] is T1, ephrin B2-Fc (extracellular region of ephrin B2 fused to the Fc domain of human IgG, expressed in mammalian … (human)).
T1 construct: extracellular domain; Antigen used for panning, ELISA and Biacore; also called extracellular region of the ephrin B2
Description: SPR (Biacore X), ephrin B2-Fc immobilised on CM5 chip, scFv at 0.4, 0.2, 0.1, 0.05 uM, Langmuir 1:1 model. As to the method:
(§1) The two selected scFv, B11 and 2B1, were characterized using various techniques. First we determined the antibodies affinity constants to the ephrin B2 by means of surface plasmon resonance technique on a Biacore X, with the extracellular region of the immobilized ephrin B2 and different dilutions of purified scFv. […] Then, it was analyzed, using the same technique, the capacity of the antibodies to compete for the binding of ephrin B2 to its natural receptor Eph B4. To this end, Eph B4-Fc was immobilized on a chip and the binding to ephrin B2 was measured in the presence of different concentrations of B11 or 2B1. […] However, the 2B1 antibody has no blocking effect (FIG. 5).
(§2) To study the affinity constants of the scFv was used the technique of surface plasmon resonance with the BIAcore X equipment (BIAcore). The ephrin B2-Fc was covalently bound to CM5 chip surface (GE Healthcare) upon activation of the carboxyl groups of the dextran matrix of the chip with 0.4 M EDC (1-ethyl-3-(-dimethylaminopropyl)-carbodiimide) and 0.1 M NHS(N-hydroxysuccinimide) in a 1:1 ratio for 7 minutes at a flow rate of 10 μl/minute. The ephrin B2-Fc protein was diluted to 10 μg/ml in 10 mM sodium acetate at pH 4 and 30 μl of this solution was passed over the chip surface at a flow rate of 10 μl/min in HBS-EP buffer (10 mM HEPES pH 7.4, 150 mM NaCl, 3 mM EDTA, 0.005% surfactant P20) (GE Healthcare). […]
In general terms: Surface plasmon resonance follows binding to a sensor surface in real time, without labels.

Assay [2] deals with T2, recombinant mouse ephrin B1-Fc (R & D) (mouse, UniProt P52795 30-229).
T2 construct: Bought protein (R & D); also called EB1; not shown: Fc part of the bought fusion protein is not described
T2 sequence (looked up): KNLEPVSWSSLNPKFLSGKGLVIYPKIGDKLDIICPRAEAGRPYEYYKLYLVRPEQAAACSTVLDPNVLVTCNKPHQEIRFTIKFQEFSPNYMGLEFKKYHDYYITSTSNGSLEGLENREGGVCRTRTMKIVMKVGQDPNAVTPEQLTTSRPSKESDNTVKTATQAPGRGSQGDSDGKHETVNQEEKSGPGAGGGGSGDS
The experiment in a line: immunoblot; periplasmic fraction of the scFv, detected with anti c-Myc and anti-mouse peroxidase conjugate. As to the method:
(§3) Recombinant mouse proteins ephrin B1-Fc, mouse ephrin B2-Fc and human ephrin B3-Fc (R & D) were separated electrophoretically in polyacrylamide-SDS 10% gels and transferred onto nitrocellulose membrane (GE Healthcare). After blocking the membrane with PBS-3% skimmed milk powder for 1 hour, it was incubated with 1:5 diluted periplasmic fraction in PBS-3% powdered milk for 16 hours at 4° C. The secondary antibodies used were anti c-Myc (Sigma) at a 1:1000 dilution for 2 hours at room temperature and anti-mouse peroxidase conjugate (Sigma) diluted 1:5000 for 1 hour at room temperature. Visualization was performed by incubation with ECL reagent (ECL, “Enhanced Chemiluminescence”) (GE Healthcare).

Assay [3] has as its target T3, recombinant human ephrin B3-Fc (R & D) (human, UniProt Q15768 28-224).
T3 construct: Bought protein (R & D); also called EB3; not shown: Fc part of the bought fusion protein is not described
T3 sequence (looked up): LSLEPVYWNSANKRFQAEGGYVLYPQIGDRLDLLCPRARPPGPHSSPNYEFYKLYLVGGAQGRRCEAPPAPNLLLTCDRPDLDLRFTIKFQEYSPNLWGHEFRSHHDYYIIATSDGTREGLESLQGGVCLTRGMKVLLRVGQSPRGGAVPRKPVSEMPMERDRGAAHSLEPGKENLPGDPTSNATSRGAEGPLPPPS
The assay is described as above. As to the method:
as §3

The target of assay [4] is T1, ephrin B2-Fc (extracellular region of …). Description: SPR competition: serial dilutions of scFv mixed with 0.2 uM ephrin B2-Fc, injected over immobilised Eph B4. As to the method:
A. Graph showing the percent of binding of ephrin B2 to Eph B4. Binding inhibition tests of ephrin B2 to Eph B4 in the presence of scFv anti-ephrin B2 by surface plasmon resonance. Serial dilutions of scFv B11 (•) or 2B1 (∘) were mixed with ephrin B2 and injected over Eph B4 immobilized on a chip. The relative amount of ephrin B2 bound to Eph B4 was measured immediately after injection of each sample and plotted as a function of the concentration of scFv. […] B. The scFv B11 is capable of blocking the interaction between ephrin B2 and Eph B4 receptor in a cellular assay. Analysis of tyrosines phosphorylation of the Eph B4 receptor in HUVEC cells in response to stimulation with ephrin B2 overexpressed on the surface of HEK293 cells. HUVEC and HEK293 cells overexpressing ephrin B2 were cocultured for 20 minutes in the presence or absence of anti-ephrin B2 scFv. After Eph B4 receptor immunoprecipitation, it was analyzed the total amount of this protein (lower panel) and its level of phosphorylation (upper panel) by immunoblot.
The ability of scFv to inhibit the binding of ephrin B2 to its EphB4 receptor was analyzed by surface plasmon resonance competitive binding assay. Soluble Eph B4 (R&D) was conjugated to a CM5 chip (GE Healthcare) using the same protocol described above. […]

For assay [5] the target is unchanged. The experiment in a line: SPR (Biacore X), ephrin B2-Fc immobilised on CM5 chip, scFv at 30, 20, 10 and 7.5 uM, Langmuir 1:1 model. As to the method: as §1, §2

T1 sequence (P52799 whole entry, the tested form may be a part): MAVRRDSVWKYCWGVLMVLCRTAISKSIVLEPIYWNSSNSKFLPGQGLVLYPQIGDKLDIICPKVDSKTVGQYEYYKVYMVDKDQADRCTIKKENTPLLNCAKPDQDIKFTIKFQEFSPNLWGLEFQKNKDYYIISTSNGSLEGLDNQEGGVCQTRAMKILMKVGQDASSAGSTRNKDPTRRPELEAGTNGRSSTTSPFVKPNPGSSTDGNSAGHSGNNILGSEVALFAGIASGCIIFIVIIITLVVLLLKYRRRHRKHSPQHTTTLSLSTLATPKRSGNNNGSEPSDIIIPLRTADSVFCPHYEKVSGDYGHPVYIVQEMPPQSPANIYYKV

B1: scFv B11 (human anti-ephrin B2 single chain variable fragment) (scFv)
scFv: QVQLVQSGAEVKKPGASVRLSCEASGYTFTDYYIHWVRQAPGQGLEWMGWMNPSSGNTGYAQKFQGRVTMTRNTSISTAYMELSSLRSEDTAVYYCARDITGTATGFDYWGQGTLVTVSSGGGGSGGGGSGGGGSEIVLTQSPLSLPVTLGQPASISCRSSQSLLHSNGYNYLDWYLQKPGQSPQLLIYLGSNRASGVPDRFSGSGSGTDFTLKISRVEAEDVGVYYCMQGLLSPVTFGQGTRLDIKRTVAAPTAAAEQKLISEEDLNGAALEHHHHHH
notes: Expressed from pET28b in the E. coli periplasm with c-myc and a histidine tail; also called clone B11; B11 antibody
For the molecule B1, binding in assay [1] was put at a Kd of 0.11 µM. Moreover, the binding result in assay [2] and in assay [3] was “no binding” throughout. Moreover, the IC50 – broadly, the point on the concentration scale where inhibition reaches its midpoint – in assay [4] amounted to 0.3 µM.

B2: scFv 2B1 (human anti-ephrin B2 single chain variable fragment) (scFv)
scFv: QVQLVQSGGGLVQPGRSLRLSCAASGFTFDDYAMHWVRQAPGKGLEWVSGISWNSGSIGYADSVKGRFTISRDNAKNSLYLQMNSLRAEDTALYYCARGHRTSDAFDIWGQGTMVTVSSGGGGSGGGGSGGGGSQPVLTQPPSVSLAPGKTARITCGGDSIGLKSVHWYQQKPGQAPVLVMSSDSDRPSGIPDRFSGSNSGNTATLTITRVEAGDEADYYCQVWDSSSDHMVFGGGTKLTVLGQPKAAPSAAALEDYKDDDDKHHHHHH
notes: Expressed from pET28b in the E. coli periplasm with a histidine tail; also called clone 2B1; 2B1 antibody
B2: the Kd (commonly the concentration at which binding is half-saturated) in assay [5] came out at 0.63 µM. The binding result in assay [2] and in assay [3] was “no binding” throughout.
